T1: human GFRα3 expressed with a C-terminal mFc tag (human)
T1 construct: also called hGFRα3-mFc
T1 chain: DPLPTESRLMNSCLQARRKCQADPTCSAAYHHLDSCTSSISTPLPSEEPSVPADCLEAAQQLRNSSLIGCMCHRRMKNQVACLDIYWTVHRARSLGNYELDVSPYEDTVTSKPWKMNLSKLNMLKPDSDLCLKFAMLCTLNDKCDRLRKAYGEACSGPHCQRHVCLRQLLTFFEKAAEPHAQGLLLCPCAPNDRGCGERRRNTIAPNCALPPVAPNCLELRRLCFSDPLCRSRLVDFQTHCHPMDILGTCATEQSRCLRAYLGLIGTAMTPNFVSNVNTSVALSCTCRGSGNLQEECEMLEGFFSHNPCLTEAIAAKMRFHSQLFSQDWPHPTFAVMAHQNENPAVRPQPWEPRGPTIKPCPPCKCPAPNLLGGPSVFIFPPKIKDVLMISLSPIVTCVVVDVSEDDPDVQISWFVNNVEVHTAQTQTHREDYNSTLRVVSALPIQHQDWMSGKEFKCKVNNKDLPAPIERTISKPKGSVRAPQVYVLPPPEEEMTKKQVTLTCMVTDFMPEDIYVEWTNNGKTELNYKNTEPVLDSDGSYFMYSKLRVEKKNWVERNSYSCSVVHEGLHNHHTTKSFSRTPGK

T2: monkey GFRα3 expressed with a C-terminal myc-myc-hexahistidine tag (monkey (Mf), UniProt O60609 32-374 (human entry), limits assumed)
T2 construct: also called MfGFRα3-mmh; MfGFRα3-mmH
T2 chain: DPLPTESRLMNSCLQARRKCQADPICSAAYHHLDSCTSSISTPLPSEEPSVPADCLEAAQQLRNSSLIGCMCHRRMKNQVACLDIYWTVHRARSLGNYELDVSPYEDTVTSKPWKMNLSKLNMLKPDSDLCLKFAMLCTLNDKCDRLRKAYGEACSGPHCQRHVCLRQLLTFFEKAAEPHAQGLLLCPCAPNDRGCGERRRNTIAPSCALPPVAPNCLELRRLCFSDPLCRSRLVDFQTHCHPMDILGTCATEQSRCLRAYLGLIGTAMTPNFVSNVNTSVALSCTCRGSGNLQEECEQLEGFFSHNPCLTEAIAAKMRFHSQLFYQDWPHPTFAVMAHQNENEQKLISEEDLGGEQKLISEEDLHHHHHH


Columns and labels:
[1] = target: T1, human GFRα3 expressed with a C-terminal …; assay: SPR, Ab captured, 25C
Outline: (§1)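 Rate constants (ka, kd) came from 1:1 fits of 3-fold analyte dilution series (100–3.7 nM Fc-tagged, 200–7.4 nM mmh-tagged) flowed over antibody captured via anti-IgG on CM5. Buffers were HBS-EP or PBS with 0.05% P20, pH 7.4. KD and half-life were derived from kd/ka and ln2/(60*kd).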

[2] = target: T2, monkey GFRα3 expressed with a …; assay: SPR, Ab captured, 25C
Outline: as §1

[3] = target: T3, human GFRα3 expressed with a C-terminal myc-myc-hexahistidine tag (human, UniProt O60609 32-374, biotinylated (sites not given) in ELISA format 2 and in the Octet cross-competition; not in SPR); assay: Octet cross-competition; biotin-hGFRα3-mmH pre-saturated with first antibody H4H2342P
T3 construct: also called hGFRα3-mmh; hGFRα3-mmH
Protocol: (§2) A cross-competition assay was conducted to assess the ability of select antibodies to compete with one another for binding to human GFRα3 using an Octet RED384 biosensor (Fortebio Inc.). The entire experiment was performed at 25° C. with the flow rate of 1000 rpm in Octet HBST buffer (0.01 M HEPES pH7.4, 0.15M NaCl, 3 mM EDTA, 0.05% v/v Surfactant P20, 0.1 mg/mL BSA). To assess whether 2 antibodies were able to compete with one another for binding to their respective epitopes on biotinylated recombinant human GFRα3 expressed with a C-terminal myc-myc-hexahistidine tag (biotin-hGFRα3-mmH; SEQ ID:370), around ˜1.2 nm of biotin-hGFRα3-mmH was first captured onto streptavidin-coated Octet sensor tips (Fortebio Inc, #18-5019) by submerging the tips for 1 minute into a 10 μg/mL solution of biotin-hGFRα3-mmH. The antigen coated sensor tips were then placed into wells containing 25 μg/mL solution of a first anti-GFRα3 monoclonal antibody for 4 minutes to saturate the biotin-hGFRα3-mmH surface. The sensor tips were then subsequently dipped into wells containing 25 μ/mL solution of a second anti-GFRα3 monoclonal antibody. The sensor tips were washed in Octet HBST buffer in between every step of the experiment. The real-time binding response was monitored during the course of the experiment and the binding response at the end of every step was recorded as shown in FIG. 9. The response of mAb-2 binding to biotin-hGFRα3-mmH pre-complexed with the first antibody was compared and competitive/non-competitive behavior of different anti-GFRα3 monoclonal antibodies was determined.

[4] = target: T3, human GFRα3 expressed with a C-terminal …; assay: Octet cross-competition; biotin-hGFRα3-mmH pre-saturated with first antibody H4H2212N
Protocol: as §2

[5] = target: T3, human GFRα3 expressed with a C-terminal …; assay: Octet cross-competition; biotin-hGFRα3-mmH pre-saturated with first antibody H4H2357S
Protocol: as §2

| Binder | Kd [1] [nM] | koff [1] [s⁻¹] | kon [1] [M⁻¹ s⁻¹] | t1/2 [1] [h] | Kd [2] [nM] | koff [2] [s⁻¹] | kon [2] [M⁻¹ s⁻¹] | t1/2 [2] [h] | binding response of second antibody (nm) [3] [nm] | binding response of second antibody (nm) [4] [nm] | binding response of second antibody (nm) [5] [nm] |
| --- | --- | --- | --- | --- | --- | --- | --- | --- | --- | --- | --- |
| H4H2342P (antibody, human IgG4, V domains shown, human IgG4 Fc (H4H)) VH: EVQLLESGGGLVQPGGSLRLSCAASGFTFSTYAMSWVRQAPGKGLEWVSAIRGNGVNTYYGDSMKGRFTISRDNSKDTLYLQMNSLRAEDTAVYYCAKNKWELLVFEYWGQGTLVTVSS VL: DIQMTQSPSSLSASVGDRVTITCRASQDISNYLAWYQQKPGKVPKLLIYAASTLQSGVPFRFSGSGSGTDFTLTISSLQPEDVATYYCQKYNSAPPFGPGTKVDIK | ≤ 0.00151 | ≤ 1e-06 | 661000 | 192 | 5.87 | 0.00055 | 93700 | 0.35 | 0.06 | 2.17 | -0.01 |
| H4H2295S (antibody, human IgG4, V domains shown, human IgG4 Fc (H4H)) VH: EVQLVESGGGLVQAGGSLRLSCVASGFTFSSYAMSWVRQAPGKGLEWVSAISGSGGSTYSADSVKGRFTISRDNSKNTLYLQMNSLRAEDTAVYYCTKPSSYSSSNFYYGMDVWGQGTTVTVSS VL: DIQMTQSPSSVSASVGDRVTITCRASQGISSWLAWYQQKPGKAPKLLIYTASSLQSGVPSRFSGSGSRTDFTLTISSLQPEDFATYYCQQTNSLPLTFGPGTKVEIK | 0.00157 | 1.69e-06 | 1.08e+06 | 114 | 5.32 | 0.000973 | 183000 | 0.2 | 0.31 | 2.15 | 0.12 |
| H4H2296S (antibody, human IgG4, V domains shown, human IgG4 Fc (H4H)) VH: not shown VL: DIVMTQSPSSVSASVGDRVTITCRASQGISSWLAWYQQKPGKAPKLLIYAASSLRSGVPSRFSGSGSGTDFTLTITSLQPEDFATYYCQHTNSFPFTFGPGTKVEIK | 0.00337 | 4.17e-06 | 1.24e+06 | 46.2 | 3.37 | 0.000651 | 193000 | 0.3 | 0.28 | 2.36 | 0.06 |
| H4H2294S (antibody, human IgG4, V domains shown, human IgG4 Fc (H4H)) VH: EVQLVESGGGLVQPGGSLRLSCAASGFTFSSYAMSWVRQAPGKGLEWVSVISGSGGSTYYADAVKGRFTISRDNSKHTLYLQMNSLRAEDTAVYYCTKPSSYSSSNFYYGMDVWGQGSTVTVSS VL: DIQLTQSPSSVSASVGDRVTITCRASQGISSWLAWYQQKPGKAPKLLIYAASSLQSGVPSRFSGSGSGTDFTLTISSLQPEDFATYYCQQTNSFPFPFGPGTKVDIK | 0.00463 | 5.63e-06 | 1.22e+06 | 34.2 | 0.627 | 0.000204 | 325000 | 0.95 | 0.23 | 2.12 | 0.05 |
| H4H2292S (antibody, human IgG4, V domains shown, human IgG4 Fc (H4H)) VH: EVQLVESGGGVVQPGRSLRLSCAASGFTFSSYGMHWVRQAPGKGLEWVSFIWYDGSNKYYADSVKGRFTISRDNSKNTLYLQMNSLTAEDTAVYYCARRGILTGTTAFDIWGQGTMVTVSS VL: DIQMTQSPSSLSASVGDRVTITCRASQSISSYLNWYQQKPGKAPKLLIYAASSLQSGVPSRFSGSGSGTDFTLTIRSLIPEDFATYYCQQTYNTPFTFGPGTKVEIK | ≤ 0.00187 | – | 534000 | 192 | 1.57 | 0.000122 | 77600 | 1.58 | 1.85 | 1.76 | 1.92 |

Second part, the binder after the results:

| Kd [1] [nM] | koff [1] [s⁻¹] | kon [1] [M⁻¹ s⁻¹] | t1/2 [1] [h] | Kd [2] [nM] | koff [2] [s⁻¹] | kon [2] [M⁻¹ s⁻¹] | t1/2 [2] [h] | binding response of second antibody (nm) [3] [nm] | binding response of second antibody (nm) [4] [nm] | binding response of second antibody (nm) [5] [nm] | Binder |
| --- | --- | --- | --- | --- | --- | --- | --- | --- | --- | --- | --- |
| 0.0324 | 2.52e-05 | 779000 | 7.63 | 2.26 | 0.000315 | 140000 | 0.617 | 0.25 | 2.38 | 0.04 | H4H2357S (antibody, human IgG4, V domains shown, human IgG4 Fc (H4H)) VH: EVQLVESGGGLVQPGGSLRLSCAASTFTFSSYAMTWVRQAPGKGLEWVSSISGSGDSTYYADSVKGRFTISRDNSKNTLFLQMNSLRAEDTAVYYCAKKDGPGRYYVRYGMDVWGQGTTVTVSS VL: DIQMTQSPSSVSASVGDRVTITCRASQGISSWLAWYQQKPGKAPKLLIYTTSSLQSGVPSRFSGSGSGTDFTLTISSLQPEDFATYYCQQANSFPLTFGGGTKVDIK |
| 0.0416 | 2.12e-05 | 509000 | 9.08 | 1.71 | 0.000111 | 64700 | 1.73 | 1.46 | 1.36 | 1.35 | H4H2350P (antibody, human IgG4, V domains shown, human IgG4 Fc (H4H)) VH: QVQLQESGPGLVKPSETLSLTCTVSGGSISTYYWSWFRQPPGKGLEWIGYIYYSGSTNHNPSLKSRVTISVDTSKNQFSLKLRSVTAADTAVYYCARVGPVGWGSWGNFDYWGQGTLVTVSS VL: DIQLTQSPSFLSASVGDRVTITCWASQGISSYLAWSQQKPGKAPKLLIYAASTLQSGVPSRFSGSGSGTEFTLTISSLQPEDFATYYCQQLNSYPWTFGQGTKVEIK |
| ≤ 0.000467 | ≤ 1e-06 | 2.14e+06 | 192 | ≤ 0.0029 | ≤ 1e-06 | 345000 | 192 | 1.72 | 0.08 | 2 | H4H2352S (antibody, human IgG4, V domains shown, human IgG4 Fc (H4H); also called H4H2352S-1) VH: EVQLVQSGAEVKKPGASVKVSCKASGYTFTNYGITWVRQAPGQGLEWMGWISAYNGNTGYAQKFQGRVTMTTDTSTSTAYMELRSLRSDDTAVYYCAREDYDFWRAFDIWGQGTMVTVSS VL: EIVLTQSPGTLSLSPGERATLSCRASQSVSSTYLAWLQQKPGQAPRLLIYGASSRATGIPDRFSGSGSGTDFTLTINRLEPEDFAVYYCQQYAYSPYTFGQGTKLEIK |
| ≤ 0.00164 | ≤ 1e-06 | 611000 | 192 | 0.649 | 6.78e-05 | 105000 | 2.83 | 0.16 | 2.05 | 0 | H4H2355S (antibody, human IgG4, V domains shown, human IgG4 Fc (H4H)) VH: EVQLVESGGGLVQPGGSLRLSCAASGFTFSSYAMSWVRQVPGKGLEWVSAISGSGDNTYNAESVKGRFTISRDNSKNMLYLQMNSLRAEDTAVYYCAKTKFSSSLLFDYWGQGTLVTVSS VL: not shown |
